Test results taken from US20260035450A1.

Columns and labels:
[1] = biological target: T1, recombinant human ANGPTL3 (rhANGPTL3) (SEQ ID NO:1) (human) (UniProt Q9Y5C1); assay: cell-based or functional assay
T1 sequence: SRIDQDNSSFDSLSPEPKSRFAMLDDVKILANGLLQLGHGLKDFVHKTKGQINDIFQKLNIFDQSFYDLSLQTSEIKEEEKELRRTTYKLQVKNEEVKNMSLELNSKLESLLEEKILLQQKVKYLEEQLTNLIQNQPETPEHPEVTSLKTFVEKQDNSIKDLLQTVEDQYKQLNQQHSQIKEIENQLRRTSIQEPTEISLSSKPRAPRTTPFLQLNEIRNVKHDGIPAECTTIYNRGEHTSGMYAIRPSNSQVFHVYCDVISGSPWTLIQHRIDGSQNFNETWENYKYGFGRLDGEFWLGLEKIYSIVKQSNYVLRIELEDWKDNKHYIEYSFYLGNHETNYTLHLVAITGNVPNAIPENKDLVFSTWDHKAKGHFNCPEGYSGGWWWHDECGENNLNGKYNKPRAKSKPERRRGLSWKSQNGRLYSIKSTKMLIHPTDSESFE

[2] = biological target: T1, recombinant human ANGPTL3 (rhANGPTL3) (SEQ ID NO:1) (human); assay: SE-UPLC of antibody mixed with rhANGPTL3 (1:3 molar ratio), run buffer pH 6.0
[3] = biological target: T1, recombinant human ANGPTL3 (rhANGPTL3) (SEQ ID NO:1) (human); assay: SE-UPLC of antibody mixed with rhANGPTL3 (1:3 molar ratio), run buffer pH 7.4
[4] = biological target: T1, recombinant human ANGPTL3 (rhANGPTL3) (SEQ ID NO:1) (human); assay: SE-UPLC of antibody mixed with rhANGPTL3 (1:3 molar ratio); change of mean retention time from pH 7.4 to 6.0

evinacumab sequence identical analogue (SIA) (antibody), sequence (VH): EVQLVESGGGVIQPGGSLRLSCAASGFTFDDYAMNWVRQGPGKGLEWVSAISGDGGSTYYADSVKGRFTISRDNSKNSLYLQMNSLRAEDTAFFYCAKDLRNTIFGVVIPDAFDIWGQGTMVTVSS
evinacumab sequence identical analogue (SIA) (antibody), sequence (VL): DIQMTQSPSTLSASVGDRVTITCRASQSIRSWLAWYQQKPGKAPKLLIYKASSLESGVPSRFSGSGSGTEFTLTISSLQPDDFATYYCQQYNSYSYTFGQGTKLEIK

Average relative IC50 (inhibition of rhANGPTL3-mediated LPL inhibition) (relative to evinacumab SIA) [1]: 1
MRT (mean retention time of immune complex), pH6.0 [2]: 3.82 min
RT (retention time of immune complex), pH6.0 [2]: 3.83 min
MRT (mean retention time of immune complex), pH7.4 [3]: 3.72 min
RT (retention time of immune complex), pH7.4 [3]: 3.72 min
MRT shift, pH7.4 -> pH6.0 [4]: 0.1 min
Substance: evinacumab sequence identical analogue (SIA) (antibody)
